PMC4859490, “Why p-OMe- and p-Cl-β-Methylphenethylamines Display Distinct Activities upon MAO-B Binding” (PLoS ONE, 2016)

Substrate: COc1ccc(C(C)CN)cc1
Experiment: purified protein
Format: biochemical, Homo sapiens
Conditions: FAD substrate binding site (modelled: aromatic cage facing FAD, Tyr398/Tyr435; methoxyl oxygen near Cys172)

B1: MAO-B (Homo sapiens) (protein)
chain: SNKCDVVVVGGGISGMAAAKLLHDSGLNVVVLEARDRVGGRTYTLRNQKVKYVDLGGSYVGPTQNRILRLAKELGLETYKVNEVERLIHHVKGKSYPFRGPFPPVWNPITYLDHNNFWRTMDDMGREIPSDAPWKAPLAEEWDNMTMKELLDKLCWTESAKQLATLFVNLCVTAETHEVSALWFLWYVKQCGGTTRIISTTNGGQERKFVGGSGQVSERIMDLLGDRVKLERPVIYIDQTRENVLVETLNHEMYEAKYVISAIPPTLGMKIHFNPPLPMMRNQMITRVPLGSVIKCIVYYKEPFWRKKDYCGTMIIDGEEAPVAYTLDDTKPEGNYAAIMGFILAHKARKLARLTKEERLKKLCELYAKVLGSLEALEPVHYEEKNWCEEQYSGGCYTTYFPPGILTQYGRVLRQPVDRIYFAGTETATHWSGYMEGAVEAGERAAREILHAMGKIPEDEIWQSEPESVDVPAQPITTTFLERHLPSVPGLLRLIGLTTIFSATALGFLAHKRGLLVRV
Km: 87 ± 8 µM
kcat: 0.233 ± 0.0167 s⁻¹
